Consider four molecules from PMC7913777, “Allosteric effects of SSB C-terminal tail on assembly of E. coli RecOR proteins” (Nucleic Acids Research, 2021).

Values joined by “and” are separate entries in the source; they are usually repeats but may differ in a detail not shown here. Identical values can stand only once.

Test [1] has as its target Escherichia coli RecR protein (E. coli) (UniProt P0A7H6). As to the kind of experiment: AUC; sedimentation equilibrium of RecR alone, 4, 8 and 12 μM (monomer), buffer BTP pH 6.4, 50 mM NaCl, 25°C; dimers to tetramer, Lobs = [R4]/[R2]^2.
The target is the same in test [2]. Description: AUC; sedimentation equilibrium of RecR alone, buffer BTP pH 8.0, 50 mM NaCl + 10 mM MgCl2, 25°C; dimers to tetramer.
Test [3] shares this target. As to the kind of experiment: AUC; sedimentation equilibrium of RecR alone, 4, 8 and 12 μM (monomer), buffer BTP pH 7.5, 50 mM NaCl, 25°C; dimers to tetramer, Lobs = [R4]/[R2]^2.
The target is the same in test [4]. Description: AUC; sedimentation equilibrium of RecR alone, 4, 8 and 12 μM (monomer), buffer BTP pH 9.0, 50 mM NaCl, 25°C; dimers to tetramer, Lobs = [R4]/[R2]^2.
For test [5] the target is unchanged. Description: AUC; sedimentation equilibrium of RecR alone, buffer BTP pH 8.0 with 200 mM NaCl, 25°C; dimers to tetramer.
The target is the same in test [6]. Description: AUC; sedimentation equilibrium of RecR alone, 4, 8 and 12 μM (monomer), buffer BTP pH 8.5, 50 mM NaCl, 25°C; dimers to tetramer, Lobs = [R4]/[R2]^2.
Test [7] has the same target. Description: AUC; sedimentation equilibrium of RecR alone, 4, 8 and 12 μM (monomer), buffer BTP pH 8.0, 50 mM NaCl, 25°C; dimers to tetramer, Lobs = [R4]/[R2]^2; at 8 μM also a two-species model with the second mass floated.
The target is the same in test [8]. As to the kind of experiment: AUC; sedimentation equilibrium of RecR alone, buffer BTP, 37°C; dimers to tetramer.
Test [9] shares this target. As to the kind of experiment: AUC; sedimentation velocity of RecR alone, eight concentrations 2-20 μM (monomer), buffer BTP (pH 8.0), 25°C, 233 nm.
The target is the same in test [10]. Description: AUC; sedimentation equilibrium of RecR alone, 4, 8 and 12 μM (monomer), buffer BTP pH 7.0, 50 mM NaCl, 25°C; dimers to tetramer, Lobs = [R4]/[R2]^2.
Test [11] concerns the target T1, E. coli RecR tetramer (E. coli, UniProt P0A7H6 1-201).
T1 construct: RecR, E. coli; tetramer 87.8 kDa; Same preparation as m2; the tetrameric state, which is the one found in complexes with RecO; also called RecR4; R4; source: E. coli BL21 Rosetta 2(DE3)pLysS, purified (Ni-NTA)
T1 sequence (looked up): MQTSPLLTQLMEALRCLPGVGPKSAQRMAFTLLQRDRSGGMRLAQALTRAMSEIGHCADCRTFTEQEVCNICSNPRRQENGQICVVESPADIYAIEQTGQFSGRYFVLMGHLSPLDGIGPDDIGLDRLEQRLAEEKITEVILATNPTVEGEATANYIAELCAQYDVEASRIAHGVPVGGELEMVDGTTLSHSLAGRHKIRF
As to the kind of experiment: AUC; sedimentation velocity, RecO (1.5 μM) titrated with RecR (1.5-9 μM monomer; 1:1 to 1:6), no P15, buffer BTP (pH 8.0), 25°C; K3 and K4 from SedAnal simulations (Scheme 1) that best describe the c(s) profiles.

Test [12] addresses T1, E. coli RecR tetramer. Description: AUC; sedimentation equilibrium, RecO 1.5 μM + RecR 6 μM monomer (1:4), no P15, buffer BTP (pH 8), 25°C, 18 000, 23 000, 28 000 rpm; two-species model, free RecR dimer fixed.
The target in test [13] is T1, E. coli RecR tetramer. As to the kind of experiment: AUC; sedimentation equilibrium, RecO 1.5 μM + RecR 1.5 μM monomer (1:1), no P15, buffer BTP (pH 8), 25°C, 18 000, 23 000, 28 000 rpm; two-species model, free RecO fixed.
Test [14] concerns the target T2, RecOR complex (pre-mixed RecO and RecR, 1:4 molar ratio) (E. coli, UniProt P0A7H3 1-242; P0A7H6 1-201).
T2 construct: RecO, E. coli; as m1; RecR, E. coli; as m2; also called pre-mixed solution of RecO (2 μM) and RecR (8 μM monomer); source: purified RecO and purified RecR (both from E. coli), pre-mixed; copies: + 4
T2 sequence (looked up) 1: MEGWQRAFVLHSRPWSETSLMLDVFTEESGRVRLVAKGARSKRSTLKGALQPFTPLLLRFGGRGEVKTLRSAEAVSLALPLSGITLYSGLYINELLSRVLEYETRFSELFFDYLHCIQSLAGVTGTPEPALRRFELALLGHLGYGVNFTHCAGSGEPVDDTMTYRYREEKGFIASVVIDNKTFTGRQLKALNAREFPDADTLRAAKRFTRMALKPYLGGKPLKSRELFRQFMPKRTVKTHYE
T2 sequence (looked up) 2: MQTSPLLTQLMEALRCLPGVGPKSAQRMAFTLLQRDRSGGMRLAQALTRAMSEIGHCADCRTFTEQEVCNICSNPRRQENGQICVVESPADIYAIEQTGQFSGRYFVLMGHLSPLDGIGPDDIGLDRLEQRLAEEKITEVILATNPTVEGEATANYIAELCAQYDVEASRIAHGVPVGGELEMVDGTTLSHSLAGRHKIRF
Description: ITC; P15 (50 μM) titrated into a pre-mixed solution of RecO (2 μM) and RecR (8 μM monomer), buffer BTP, pH 8.0, 25°C. The following applies: both partners purified. Background: In ITC the heat of successive injections is recorded.

For test [15], the target named is T3, Escherichia coli RecO protein (E. coli, UniProt P0A7H3 1-242).
T3 chain: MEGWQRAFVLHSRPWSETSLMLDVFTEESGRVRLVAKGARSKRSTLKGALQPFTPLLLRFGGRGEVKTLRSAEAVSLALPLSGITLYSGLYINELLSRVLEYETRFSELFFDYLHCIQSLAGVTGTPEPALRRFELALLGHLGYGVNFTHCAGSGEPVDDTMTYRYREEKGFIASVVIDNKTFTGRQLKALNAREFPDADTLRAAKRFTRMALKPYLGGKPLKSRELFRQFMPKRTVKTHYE
As to the kind of experiment: ITC; pH 8, 25°C.

In test [16] the target is T1, E. coli RecR tetramer. Description: AUC; sedimentation equilibrium, RecO 1.5 μM + RecR 1.5 μM (1:1) with P15 (9 μM), buffer BTP (pH 8), 25°C, 19 000, 24 000, 29 000 rpm; two-species model. The following applies: both partners purified.
For test [17], the target named is T1, E. coli RecR tetramer. Description: AUC; sedimentation equilibrium, RecO 1.5 μM + RecR 6 μM (1:4) with P15 (9 μM), buffer BTP (pH 8), 25°C, 19 000, 24 000, 29 000 rpm; one-species model. As to conditions: both partners purified.
Test [18] has as its target T1, E. coli RecR tetramer. As to the kind of experiment: AUC; sedimentation equilibrium, RecR 2 μM monomer, RecO 6 μM (3:1), P15 36 μM, buffer BTP (pH 8.0), 25°C, 19 000, 24 000, 29 000 rpm; two-species model, RecO-P15 fixed at 29.1 kDa. As to conditions: both partners purified.

The stoichiometry N is a count of units in the complex or per binding partner. Take “Escherichia coli RecR protein (from UniProt P0A7H6 1-201) (natural protein)”: the Ka in [1] is 267000 M⁻¹; in test [2], 72000 M⁻¹; in [3] it was 568000 M⁻¹; in test [4], less than 500 M⁻¹; in test [5], 34900 M⁻¹; in [6], 4320 M⁻¹. Moreover, the Ka in [7] was 216000 M⁻¹; in test [8] it was 149000 M⁻¹; in test [10], 1.65e+06 M⁻¹. Besides, the stoichiometry N in [7] is 4; in [9], 2 and 4.
In test [11], “Escherichia coli RecO protein (from UniProt P0A7H3 1-242) (natural protein)” registered a K3 (association constant, first RecO to RecR4) of 500000 M⁻¹. Moreover, in test [11], the K4 (association constant, second RecO to RecR4O) was 4e+08 M⁻¹. Besides, the stoichiometry N (RecO per RecR tetramer) in [12] and in test [13] was 2 each time.

B1: P15 peptide (the 15 C-terminal amino acids of E. coli SSB) (peptide)
peptide: PSNEPPMDFDDDIPF
notes: the 15 C-terminal amino acids of E. coli SSB; also called SSB-Ct peptide; SSB C-terminal acidic tip peptide; source: bought: WatsonBio
Turning to B1, the dH in [14] is less than 1 kcal/mol. The molecule further returned a Ka in test [15] of 1.2e+07 M⁻¹.

B2: RecO–P15 complex (complex, E. coli)
chain: MEGWQRAFVLHSRPWSETSLMLDVFTEESGRVRLVAKGARSKRSTLKGALQPFTPLLLRFGGRGEVKTLRSAEAVSLALPLSGITLYSGLYINELLSRVLEYETRFSELFFDYLHCIQSLAGVTGTPEPALRRFELALLGHLGYGVNFTHCAGSGEPVDDTMTYRYREEKGFIASVVIDNKTFTGRQLKALNAREFPDADTLRAAKRFTRMALKPYLGGKPLKSRELFRQFMPKRTVKTHYE
peptide: PSNEPPMDFDDDIPF
notes: RecO, E. coli; as m1; the 15 C-terminal amino acids of E. coli SSB; as m3; 29.1 kDa; also called RecO in the presence of a 6-fold molar excess of P15; source: RecO from E. coli BL21(DE3)pLysS, purified; P15 bought: WatsonBio; mixed with a six-fold molar excess of P15 over RecO; copies: 1 + 1
Take B2: the “stoichiometry N” value in test [16] was 2 RecO per RecR tetramer; in test [17] it was 1 RecO per RecR tetramer; in [18], 2 RecO-P15 per RecR tetramer.
